Results on 138 substances are retold here after the supplement of paper PMC12042874.

± gives the uncertainty stated by the source.

The data set can be described thus: amyloid nucleation score (Sup35N fusion, yeast selection) (log enrichment); library NNK2; higher = more nucleation; inactive = no reads after selection. The method in brief: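 Psi-negative yeast expressed Sup35N fused to peptides of 20 random codons. They were induced 24 hours with 100 μM copper sulfate, grown 7 days at 30°C without adenine and uracil, and their plasmid inserts from input and output were Illumina-sequenced. The nucleation score is the DiMSum log enrichment of output over input reads, centred on the mode score of non-aggregating sequences. Sequences with under 100 input reads were excluded.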
With NIRWRGNPFPCIVRNSVGEI, the amyloid nucleation score came to 0.097 ± 0.31. The same measure for NISGV: -0.644 ± 0.76; for NISSLSNNARVIVYFCVRYQ: “inactive”. The same measure for NITKTRHFLSLNYYNVYAFS: 5.05 ± 0.056. Turning to NIWFKFPHVLNS, the amyloid nucleation score is -0.063 ± 0.76.

The substance NKCQMSCNRRYEDMGYDRCM showed an amyloid nucleation score of 0.038 ± 0.53.

In the case of NKKIIYDQIFIRMGSFQLN, the amyloid nucleation score result is “inactive”.

Turning to NKLFPAWLPMCVFWFYGFLA, the amyloid nucleation score was -0.138 ± 0.53. NKRGQFMNMQLEKSLYFQGL: the amyloid nucleation score is -1.15 ± 0.76. The same measure for NLCDLDRGNEYAWWRVFMRS: 4.38 ± 0.11; for NLDVSYYVIYIKPGRYPV: 6.09 ± 0.078. The same measure for NLFNLSCHGLLNERKHLSGV: -0.442 ± 0.44.

NLHVHL displayed an amyloid nucleation score of 3.64 ± 0.056.

NLISKDIVLHWSRALC yielded an amyloid nucleation score of 0.339 ± 0.56. Under NLNVGALSSKWVW stands “inactive”; under NLPSWLVGRRSVWECYRLDT, 0.043 ± 1; under NLQRFSQPKIHRPNTMPLNV, “inactive”. NLRVAALAEGPRVNYRVSGW returned an amyloid nucleation score of 0.69 ± 0.43.

Substance NLSFKSMYLVERWICHRKGR registered an amyloid nucleation score of 1.14 ± 0.18. The same measure for NLSFLEPLYWNEVSYFVRCC: 6.369 ± 0.023; for NLVTYDLE: 3.79 ± 0.052; for NLVYYYHLLSRIVNSYNDAL: 0.811 ± 0.82. Substance NMFGLPKLVLSDLVVRV yielded an amyloid nucleation score of 1.72 ± 0.15. On to NMIVYC, for which the amyloid nucleation score result was “inactive”. Under NMPMQSYTIMVWSLQGMAAG stands 0.705 ± 0.56; under NMYTWAE, 0.371 ± 0.6; under NNAMWSWSS, -0.039 ± 0.41. With NNFSVSFLGVDVF, the amyloid nucleation score is -0.199 ± 0.74. The same measure for NNFWFKLQIM: 6.18 ± 0.064. NNINLTYRLYSVLDHYKLYE returned an amyloid nucleation score of 2.66 ± 0.088. As to NNLHPDYDMGIGYIIDGDPA, the amyloid nucleation score was -0.34 ± 0.62. The same measure for NNSHPRNKLSWIVRLCVKLI: “inactive”; for NNSWTDLRCVIYMSITGEPH: 8.633 ± 0.044; for NNVPCEKHRHASMYINAA: -0.081 ± 1.1. The same measure for NPALNRLMDGVNRFPLKCYV: -0.338 ± 0.23. Turning to NPELRRGWFTWYPVGPGMKQ, the amyloid nucleation score is 0.175 ± 0.54.

Regarding NPETQYASLGRS, the amyloid nucleation score is -0.306 ± 0.38. Under NPFYYTGLTIPCFVYHRIKS stands -0.508 ± 0.31; under NPHGMLSTRSGSVFMPTIDT, -0.742 ± 1. Under NPINRYCVAHEKLFRNVRSV stands 1.87 ± 0.29; under NPRFLDRCYLYYPGSASRVA, “inactive”. The same measure for NPVMTA: -0.314 ± 0.37.

With NQGLRWLTDRDILRIVEVGM, the amyloid nucleation score was determined as 0.027 ± 0.65. Turning to NQLVWSLNNDLGMENVGGRV, the amyloid nucleation score stood at 1.46 ± 0.44. NQRHVIPNSIVLWWGELDLF: the amyloid nucleation score is 0.465 ± 0.8.

NQVQCKCSYKVVEVG had an amyloid nucleation score of 0.408 ± 0.2.

NQWDPMFDRIPTMAALAGPG gave an amyloid nucleation score of 3.4 ± 0.1. NRACFGYEDKLRAMLHLYRS displayed an amyloid nucleation score of 0.201 ± 0.45. Under NRHRWLYLRMRLYRYLEGVR stands 1.18 ± 0.47. For NRIYVQNRPWSIPENVELTG, the amyloid nucleation score is -0.821 ± 0.78. The same measure for NRTGEYLYRRWVQSGSGGKG: 0.553 ± 0.65; for NRVGSSGSRYALHRVSSS: 4.846 ± 0.045. Regarding NRVLVLAVGHEKFIAKMRLT, the amyloid nucleation score worked out at 1.51 ± 0.46. For NSESVICVLQGGFIRACV, the amyloid nucleation score was -0.551 ± 0.45.

With NSFTLKCSKGVGYKALHLGT, the amyloid nucleation score was determined as 2.9 ± 0.097. Under NSGARSTSLVNVWVLYLLDR stands 6.414 ± 0.055.

Substance NSIIGCYRGFC gave an amyloid nucleation score of 4.63 ± 0.092. For NSKKWSQGIGTYSDRAFYVF, the amyloid nucleation score entry is “inactive”. As to NSKLPAEFLFFQYECMESPR, the amyloid nucleation score was -0.758 ± 0.79. For the substance NSKYPGVLYCFYRGFGRRVY, the amyloid nucleation score entry was “inactive”. As for NSLVLPDLAYLGCKMNLNFS, the amyloid nucleation score amounted to 3.94 ± 0.074. The same measure for NSLYIFMVKYP: 3.96 ± 0.049; for NSMILDKNRDSTNFVSCFSY: -1.6 ± 0.49; for NSMPATIYFMRSPDIGFSV: 2.81 ± 0.16.

NSMSDLFSFSY: the amyloid nucleation score result is “inactive”. Under NSNLNYPECWEEWTLNHFTD stands “inactive”; under NSREALVKVGNECP, “inactive”; under NSSTVGMIAF, -0.317 ± 0.22. The same measure for NSTCDMLVSQVVAAVNGF: -0.715 ± 0.49; for NSTDSSFGKARYFLSNSYWV: “inactive”. As for NSVCSTLKHLSNLGSIDIQH, the amyloid nucleation score is -0.363 ± 1.1. The same measure for NSVCYGP: 0.899 ± 0.47; for NSVDTTCAL: 1.04 ± 0.41.

Take NSYILKDFNCEPGVNMDWQN: the amyloid nucleation score entry was “inactive”. The same measure for NTKYRRFFFNTVRLLHM: -0.28 ± 0.79; for NTQDFGLCYIFFLQDRCN: -0.117 ± 0.49. The same measure for NTRCGCWLVSAML: 0.196 ± 0.77. As to NTRRSFVRVYFNGLGLCGAN, the amyloid nucleation score entry was “inactive”. The same measure for NTSFRGTTTRKSY: -0.233 ± 0.29. The same measure for NVAGCSWSSQLPRPTP: 1.46 ± 0.61. For NVERSFGAVGQVRIEEYARD, the amyloid nucleation score was determined as 0.266 ± 1. With NVLRCINYYLYYTSGCASSS, the amyloid nucleation score is -0.169 ± 0.42. The same measure for NVLRFSSTSLYGLAFLAEGS: -0.577 ± 0.3. As for NVPCGLN, the amyloid nucleation score is -0.032 ± 1.1.

Take NVRFLMMI: the amyloid nucleation score result was “inactive”. Consider NVRMSGLF, for which the amyloid nucleation score worked out at 2.67 ± 0.14. The same measure for NVSSSLPF: -0.424 ± 0.78; for NWCWYHANRLGCFGASCHVV: 4.52 ± 0.071; for NWDNSNLVFLYNSGLGNYVS: -0.874 ± 0.78. Under NWGWFVSLFYGVAAGDHSRT stands 0.955 ± 0.37; under NWLLRG, 1.26 ± 0.37. The same measure for NWNLRHRCAGWYCDRRKVLR: 4.28 ± 0.085. For NYCVLSFDISGYAFYKEGLG, the amyloid nucleation score was -0.492 ± 1.1. With NYHKWNVDSDFVYKGYGGHC, the amyloid nucleation score is -0.573 ± 0.48. As for NYLMWVITSTYWRHGRESWA, the amyloid nucleation score turned out to be 3.03 ± 0.057. Consider NYRMCFTLHSCYLIRSDNLS, for which the amyloid nucleation score result is “inactive”. In turn, PAIHVVDTRVGWRHSMSGYS came in with an amyloid nucleation score of 1.72 ± 0.15.

Take PAKERLFRVETGRFRMKGSW: the amyloid nucleation score worked out at 1.63 ± 0.13. On to PAMSVHGNSAESTYVIMHYF, for which the amyloid nucleation score was -0.494 ± 0.54. The same measure for PANGS: -0.249 ± 1. The same measure for PARAKRLTAL: -0.207 ± 0.29; for PARMNLYVCIYV: 7.32 ± 0.081; for PARTYILYNPDAGMSLKWSS: -1.06 ± 1.1. The same measure for PAVDRIFSRLCTYSGQFIPQ: 4.66 ± 0.061; for PAWATTLLDTSTARLYNMLA: 0.157 ± 0.18. In turn, PAYLDPCTSFSVILAMVLLW yielded an amyloid nucleation score of 0.697 ± 0.55. Under PCERPFERFLVLNRFSDSST stands 0.183 ± 0.62. Under PCIFFMRFYFRT stands -0.078 ± 0.65; under PCIRPLDKVCLIFFTGIFLW, -1.47 ± 0.78; under PCQCKV, 4.16 ± 0.072. Take PCRYSSKSNYTW: the amyloid nucleation score was -0.507 ± 0.76.

For the substance PDFKNLSYWLSVDTMPSRWV, the amyloid nucleation score result was “inactive”. In turn, PDRSTFRVYSLHWTFCEHRC yielded an amyloid nucleation score of 3.74 ± 0.1. In turn, PDSGVSDESHLRCLPGVPRI returned an amyloid nucleation score of 0.066 ± 0.28. The same measure for PEDLLGRWIIFSYVFTIYSI: “inactive”; for PEFGTDIPKSRRRKEGCRGG: 0.717 ± 0.23; for PEILMSDGIRKLCSVYVFLR: “inactive”. The same measure for PERCYQTG: -0.251 ± 0.76. PFGHFQLLINSKTGMRSVMT: the amyloid nucleation score was -0.463 ± 0.37. The same measure for PFGKPVYLIFPPGMLVIFRA: -0.603 ± 1.1. The same measure for PFRGYFGVLSYAVFGEAGPV: 4.4 ± 0.067; for PFSNMLASAFNFILITCSDL: “inactive”.

PFSRLNPRDPLWVEMFVCWQ: the amyloid nucleation score came out at 3.48 ± 0.066. In turn, PFSWH had an amyloid nucleation score of 1.38 ± 0.14. Under PFTSYML stands 5.63 ± 0.065; under PFYVSRRVCKYAF, -0.301 ± 0.28.

Consider PGEECGGLSITIEWGTSSS, for which the amyloid nucleation score amounted to 0.211 ± 0.5. Consider PGHLLRILVFSNNYAYQRDI, for which the amyloid nucleation score is -0.647 ± 0.42. The same measure for PGILDNRLGKQGAGLDLRWH: 1.17 ± 0.24. Regarding PGLRGGA, the amyloid nucleation score is -0.398 ± 0.76. Substance PGLTVYFGTVRMKVHCWSYR gave an amyloid nucleation score of 9.779 ± 0.029. On to PGNNMLFMWYHWGLGCNFLM, for which the amyloid nucleation score was -0.059 ± 0.79. As for PGSKPPWVSYGNPSTMAIGM, the amyloid nucleation score is -0.472 ± 0.79. Under PGSLSLIINIKCTTAKDRTL stands 2.79 ± 0.13; under PGYGPLTMGGS, 1.35 ± 0.24; under PGYSSNSCERDLLGRASVWL, -0.593 ± 0.74. The substance PHLASPYHHPCNPQFLFPYL had an amyloid nucleation score of 0.016 ± 1.1. As to PHRSPMGANHPERCLVPMLF, the amyloid nucleation score is -0.134 ± 0.55.
